B1: TPR t1 (parent)
chain: GACCAAUCUGCCCUCAGAGCUCGAGAACAUCUUCGGAUGCAGAGGAGGCAGGCUUCGGUGGCGCGAUAGCGCCAACGUCCUCAACCUCCAAUGCAUCCCACCACAUGAUGAUGCCUGAAGAGCCUUGGUUUUUUG

Variants of: B1
Experiment: polymerase ribozyme fitness, log enrichment relative to wild type (log ratio); higher = more active; in vitro selection for triplet polymerase activity
Procedure, shortened: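 Fitness measures genotype enrichment against wild-type enrichment on a logarithmic scale, with inverse-variance-weighted averaging of replicates. The logarithm is base 2, and genotypes were kept only with ≥10 input reads and ≥1 read per output in Illumina sequencing. The sequenced libraries came from one triplicate in vitro selection round, including frozen incubation at −7 °C, of PCR-built, transcribed mutant libraries of each subunit of a heterodimeric triplet polymerase ribozyme.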

Variant	polymerase ribozyme fitness (log ratio)
GACCUAUCUGCCCUCAGAGCUCGAGAACAUCUUCGGAUGCAGAGGAGGCAGGCUUCGGUGGCGCGAUAGCGCCAACGUCCUCAACCUCCAAUGCAUGCCACCACAUGAUGAUGCUUGAAGAGCCUUAGUUUUUUG [A5U C97G C115U G127A]	-6.94
GACCUAUCUGCCCUCAGAGCUCGAGAACAUCUUCGGAUGCAGAGGAGGCAGGCUUCGGUGGCGCGAUAGCGCCAACGUCCUCAACCUCCAAUGCAUCCCACUACAUGAUGAUGCCUGAAGAACCUUGGUUUUUUG [A5U C102U G122A]	-3.47
GACCUAUCUGCCCUCACAGCUCAAGAACAUCUUCGGAUGCAGAGGAGGCAGGCUUCGGUGGCGCGAUAGCGCCAACGUCCUCAACCUCCAAUGCAUCCCACCACAUGAUGAUGCGUGAAGAGCCUUGGUUCUUUG [A5U G17C G23A C115G U131C]	-5.42
GACCUAUCAGCCCUCAGAGCUCGAGAACAUCUUCGGAUGCAGAGGAGGCAGGCUUCGGUGGCGCGAUAGCGCCAACGUCCUCAACCUCCAAUGCAUCCCACCACAUGAUGAUGCCUGAAGAGCCUUGGUUUUUUG [A5U U9A]	-0.246
GACCUAUCUGCCCUCAGAGCUCGAGAACAUCUUCGGAUGCAGAGGAGGCAGGCUUCGGUGGCGCGAUAGCGCCAACGUCCUCAACCUCCAAUGCAUCCCACCACAUGAUGAUGCCUGAAGAGCCUUGGUGUUUUG [A5U U130G]	-0.49
GACCUAUCUGCCCUCAGAACUCGAGAACAUCUUCGGAUGCUGAGGAGGCAGGCUUCGGUGGCGCGAUAGCGCCAACGUCCUCAACCUCCAAUGAAUCCCACCAUAUGAUGAUGCCUGAAGAGCCUUGGUUUUUUG [A5U G19A A41U C94A C104U]	-3.89
GACCUAUCUGCCCUCAGAGCUCGAGAACAUCUUCGGAUGCAGAGGAGGCAGGCUUCGGUGGCGCGAUAGCGCCAACGUCGUCAACCUCCAAUGCAUCCCACCACAUGAUGAUGCCUGAAGAGCCUUGGUUUUUUG [A5U C80G]	-5.2
GACCUAUCUGCCCUCAGAGCUCGAGAACAUCUUCGGAUGCAGAGUCGGCAGGCUUCGGUGGCGCGAUAGCGCCAACGUCCUCAACCUCCAAUGCAUCCCACCACAUGAUGAUGCCUGAAGAGCCUUGGUUUUUUG [A5U G45U A46C]	-1.71
GACCUAUCUGCCCUCAGAGCUCGAGAACAUCUUCGGAUGCAGAGGAGGCAGGCUGCGGUGGCGCGAUAGCGCCAACGUCCUCAACCUCCAAUGCUUCCCACCACAUGAUGAUGCCUGAAGAGCCUUGGGUUUUUG [A5U U55G A95U U129G]	-1.03
GACCUAUCUGCCCUCAGAGCUCGAGAACAUCUUCGGAUGCAGAGGAUGCAGGCUUCGGUGGCGCGAUAGCGCCAACGUCCUCAACCUCCAAUGCAUCCCACCACAUGAUGAUGCCUGAAGAGCCUUGGUUUUUUG [A5U G47U]	-1.29
GACCUAUCUGCCCUCAGAGCUCGAGAACAUCUUCGCAUGCAGAGGAGGCAGGCUUCGGUGGCGCGAUAGCGCCAACGUCCUCAACCUCCAAUGCAUCCCACCACAUGAUGAUGCCUGAAGAGCCUUGGUUUUUUG [A5U G36C]	-1.42
GACCUAUCUGCCCUCACUGUUCGAGAACAUCUUCGGAUGCAGAGGCGGCAGGCUUCGGAGGCGCGAUAGCGCCAACGUCCUCAACCUCCAAUGCAUCCCACCACAUGAUGAUGCCUGAAGGGCCUUCGUUUUUUG [A5U G17C A18U C20U A46C U59A A121G G127C]	-5.48
GACCUAUCUACCCUAAGAGCUCGAGAACAUCUUCGGAUGCAGAGGAGGCAGGCUUCGGUGGCGCGAUAGUGCCAACGUACUCAACCUCCAAUGUAUCCUACCACAUGAUGAUGCCUGAAGAGCUUUGGUUUUUUG [A5U G10A C15A C70U C79A C94U C99U C124U]	-7.66
GACCUAUCUAACCUCAGAGCUCGAGAACAUCUUCGGAUGCAGAGGAGGCAGGCUUCGGUGGCGCGAUAGCGGCAACGUCCUCAACCUCCAAUGCAUCCCACCACAUGAUAAUGCCUGAAGAGCCUUGGUUUUUUG [A5U G10A C11A C72G G110A]	-1.86
GACCUAUCUGCCCUCAGAGCUCGAGAACAUCUUCGGAUGCAGAGGAGGCAGGCGUCGGUGGCGCGAUAGCGCCAACGUCCUCAACCUCCAAUGCAUCCCACCACAUGAUGAUGCCUGAAGAGCCUUGGUUUUUUG [A5U U54G]	-0.237
GACCUAUCUGCCCUCAGAACUCGAGAACAUCUUCGGAUGCAGAGGAGGCAGGCUUCGGUGGCGCGAUAUCGGCAACGUCCUCAACCUCCAAUGCAUCCCACCACAUGAUGAGGCCUGAAGAGCCUUGGUUUUUUG [A5U G19A G69U C72G U112G]	-3.83
GACCUAUCUGCCCUCAGAGCUCGAGAACAUCUUCGGAUGCAGAGGAGGCAGGCUUCGGUCGCGCGAUAGCGCCAACGUCCUCAACCUCCAAUGCAACCCAACACAUGAUGAUGCCUGAUGAGCCUUGGUUUUUUG [A5U G60C U96A C101A A119U]	-2.53
GACCUAACUGCCCUCAGAGCUCGAGAACAUCUUCGGAUGGAGAGGAGGCAGGCUGUGGUAGCGCGAUAGCGCCAACGUCCUCAACCUCCAAUGCAUCCCACCACAUGAUGAUGCCUGAAGAGCCUUGGUCUUUUG [A5U U7A C40G U55G C56U G60A U130C]	-1.94
GACCUAUCUGCCCUCAGAGCUCGAGAACAUCUUCGGAUGCAGAGGAGGCAGGCUUCGGUGGCGCGAUAGCGCCAACGUCCUCAACCUCCAAUGCAUCCCACCAUAUGAUGAAGCCUGAAUAGCCUUGGUUUUUUG [A5U C104U U112A G120U]	-0.575
GACCUAUCUGCCCUCAGAGCUCGAGAACAUCUUCGGAUGCAGAGGAGGCAGGCUUCGGUGGCGCGAUACCGCCAACGUCCUCAACCUCCAAUGCAUCCCACCACAUGAUGAUGCCUGAAGAGCCUUGGUUUUUUG [A5U G69C]	-2.22
GACCUAUCUGCCCUCAGAGCUCGAGAACAUCUUCGGAUGCAGAGGAGGCAGGCUUCAGUGGCUCGAUAGCGCCAACGCCCUCAACCUCCAAUGCCUCCCACCACAUGAUGAUGCAUGAAGAGCCUUGGUUUUUUG [A5U G57A G63U U78C A95C C115A]	-3.19
